Source: patent US20110318349A1 (AbbVie / Abbott, published 2011)
One block for each binder: values may come before it.

Assays:
huTWEAK = biological target: T1, huTWEAK (human, UniProt O43508 93-249, limits assumed); experiment: cell-based or functional assay
T1 sequence (looked up): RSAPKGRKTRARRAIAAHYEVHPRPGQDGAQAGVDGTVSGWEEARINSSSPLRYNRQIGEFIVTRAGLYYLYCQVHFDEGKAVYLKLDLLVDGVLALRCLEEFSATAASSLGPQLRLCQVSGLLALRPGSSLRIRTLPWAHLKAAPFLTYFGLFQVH

[1] = biological target: T2, FLAG tagged TWEAK (Recombinant Human TWEAK) (human, UniProt O43508 106-249, limits assumed); experiment: SPR (Biacore), FLAG tagged TWEAK captured on mouse anti-FLAG chip, antibody in solution
T2 construct: Captured on a mouse anti-FLAG biosensor chip in the Biacore assay of the anti-TWEAK antibodies and DVD-Igs; also called TWEAK/TNSF12; not shown: FLAG tag
T2 sequence (looked up): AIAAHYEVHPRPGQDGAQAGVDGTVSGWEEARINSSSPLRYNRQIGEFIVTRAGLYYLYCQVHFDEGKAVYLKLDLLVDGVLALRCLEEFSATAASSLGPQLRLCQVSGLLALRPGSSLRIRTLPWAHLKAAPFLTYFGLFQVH
Procedure: (§1) Binding of antibodies or DVD-Ig to a target antigen (for example, a purified recombinant target antigen) was determined by surface plasmon resonance-based measurements with a Biacore® T-100, T-200, or 3000 instrument (GE, New Jersey) using running HBS-EP (10 mM HEPES [pH 7.4], 150 mM NaCl, 3 mM EDTA, and 0.005% surfactant P20) at 25° C. All chemicals were obtained from GE (New Jersey) or otherwise from a different source as described in the text. For example, approximately 5000 RU of goat anti-human IgG, (Fcγ), fragment specific polyclonal antibody (Pierce Biotechnology Inc, Rockford, Ill.) diluted in 10 mM sodium acetate (pH 4.5) was directly immobilized across a CM5 research grade biosensor chip using a standard amine coupling kit according to manufacturer's instructions and procedures at 25 Unreacted moieties on the biosensor surface were blocked with ethanolamine Modified carboxymethyl dextran surface in flowcell 2,3, and 4 was used as a reaction surface. Modified carboxymethyl dextran surface with goat anti-human IgG in flow cell 1 was used as the reference surface. For kinetic analysis, rate equations derived from the 1:1 Langmuir binding model were fitted simultaneously to association and dissociation phases of all eight injections (using global fit analysis) with the use of Biaevaluation 4.0.1 software. Purified antibodies or DVD-Ig were diluted in HEPES-buffered saline for capture across goat anti-human IgG specific reaction surfaces. Antibodies or DVD-Ig to be captured as a ligand (1 μg/ml) were injected over reaction matrices at a flow rate of 50 μl/min. The association and dissociation rate constants, kₒₙ (M⁻¹s⁻¹) and koff (s⁻¹) were determined under a continuous flow rate of 500 min. Rate constants were derived by making kinetic binding measurements at different antigen concentrations ranging from 2-200 nM. Anti-TWEAK antibodies and DVD-Igs were evaluated by binding of the antibodies/DVD-Igs to the captured FLAG tagged TWEAK on a mouse anti FLAG biosensor chip. The concentrations of the DVD-Igs/Antibodies tested were between 100-0.01 nM.
(§2) The equilibrium dissociation constant (M) of the reaction between antibodies or DVD-Igs and the target antigen was then calculated from the kinetic rate constants by the following formula: KD=koff/kₒₙ. Binding was recorded as a function of time and kinetic rate constants are calculated.

muTNFα = biological target: T3, muTNFα (mouse, UniProt P06804 80-235); experiment: cell-based or functional assay
T3 sequence (looked up): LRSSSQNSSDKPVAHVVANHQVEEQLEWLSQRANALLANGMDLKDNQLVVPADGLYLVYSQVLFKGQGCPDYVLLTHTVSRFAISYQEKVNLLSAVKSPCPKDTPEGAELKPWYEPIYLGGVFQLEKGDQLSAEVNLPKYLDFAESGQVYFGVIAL

[2] = biological target: T4, Recombinant Human TNF-α/TNFSF1A (human, UniProt P01375 77-233); experiment: SPR (Biacore), antibody captured on goat anti-human IgG Fc chip, antigen in solution
Procedure: as §1, with “Antibodies or DVD-Ig to be captured as a ligand (1 μg/ml) were injected over reaction matrices at a flow rate of 50 μl/min.” left out, “Rate constants were derived by making kinetic binding measurements at different antigen concentrations ranging from 2-200 nM.” left out, “The concentrations of the DVD-Igs/Antibodies tested were between 100-0.01 nM.” left out
as §2

[3] = biological target: T4, Recombinant Human TNF-α/TNFSF1A; experiment: SPR (Biacore), antibody captured on goat anti-human IgG Fc chip, antigen in solution (row printed a second time)
Procedure: Binding of antibodies or DVD-Ig to a target antigen (for example, a purified recombinant target antigen) was determined by surface plasmon resonance-based measurements with a Biacore® T-100, T-200, or 3000 instrument (GE, New Jersey) using running HBS-EP (10 mM HEPES [pH 7.4], 150 mM NaCl, 3 mM EDTA, and 0.005% surfactant P20) at 25° C. All chemicals were obtained from GE (New Jersey) or otherwise from a different source as described in the text. […] The association and dissociation rate constants, kₒₙ (M⁻¹s⁻¹) and koff (s⁻¹) were determined under a continuous flow rate of 500 min. […] Anti-TWEAK antibodies and DVD-Igs were evaluated by binding of the antibodies/DVD-Igs to the captured FLAG tagged TWEAK on a mouse anti FLAG biosensor chip. […]
as §2

[4] = biological target: T4, Recombinant Human TNF-α/TNFSF1A; experiment: SPR (Biacore), DVD-Ig captured on goat anti-human IgG Fc chip, antigen in solution; N-terminal TNF domain
Procedure: as §1, §2

[5] = biological target: T2, FLAG tagged TWEAK (Recombinant Human …); experiment: SPR (Biacore), FLAG tagged TWEAK captured on mouse anti-FLAG chip, DVD-Ig in solution; C-terminal TWEAK (seq. 2) domain
Procedure: as §1, with “Antibodies or DVD-Ig to be captured as a ligand (1 μg/ml) were injected over reaction matrices at a flow rate of 50 μl/min.” left out, “Rate constants were derived by making kinetic binding measurements at different antigen concentrations ranging from 2-200 nM.” left out, “The concentrations of the DVD-Igs/Antibodies tested were between 100-0.01 nM.” left out
as §2

T4 sequence (P01375 77-233 limits assumed): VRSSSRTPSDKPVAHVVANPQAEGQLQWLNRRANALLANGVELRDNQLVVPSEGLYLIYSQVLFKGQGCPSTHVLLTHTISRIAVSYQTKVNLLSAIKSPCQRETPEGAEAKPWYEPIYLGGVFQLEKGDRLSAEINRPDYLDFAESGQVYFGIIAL

C-terminal VD TWEAK Neutralization Assay EC50 nM (IL-8 in supernatant of A375 cells) (huTWEAK): 0.123 nM
B3: DVD1131 (bispecific antibody, human IgG1, kappa)
heavy: not shown
light: QIVLSQSPAILSASPGEKVTMTCRASSSVSYMHWFQQKPGSSPKPWIYATSNLASGVPARFSGSGSGTSYSLTISRVEAEDAATYYCQQWSSSPLTFGAGTKLELKRTVAAPSVFIFPPDVVMTQSPLSLPVTPGEPASISCRSSQSLVSSKGNTYLHWYLQKPGQSPQFLIYKVSNRFSGVPDRFSGSGSGTDFTLKISRVEAEDVGVYFCSQSTHFPRTFGGGTKVEIKRTVAAPSVFIFPPSDEQLKSGTASVVCLLNNFYPREAKVQWKVDNALQSGNSQESVTEQDSKDSTYSLSSTLTLSKADYEKHKVYACEVTHQGLSSPVTKSFNRGEC

C-terminal VD TWEAK Neutralization Assay EC50 nM (IL-8 in supernatant of A375 cells) (huTWEAK): 0.238 nM
B6: DVD1132 (bispecific antibody, human IgG1, kappa)
heavy: not shown
light: QIVLSQSPAILSASPGEKVTMTCRASSSVSYMHWFQQKPGSSPKPWIYATSNLASGVPARFSGSGSGTSYSLTISRVEAEDAATYYCQQWSSSPLTFGAGTKLELKRTVAAPDVVMTQSPLSLPVTPGEPASISCRSSQSLVSSKGNTYLHWYLQKPGQSPQFLIYKVSNRFSGVPDRFSGSGSGTDFTLKISRVEAEDVGVYFCSQSTHFPRTFGGGTKVEIKRTVAAPSVFIFPPSDEQLKSGTASVVCLLNNFYPREAKVQWKVDNALQSGNSQESVTEQDSKDSTYSLSSTLTLSKADYEKHKVYACEVTHQGLSSPVTKSFNRGEC
N-terminal VD TNFα Neutralization Assay EC50 nM (L929 cell viability, WST-1) (muTNFα): 0.196 nM

C-terminal VD TWEAK Neutralization Assay EC50 nM (IL-8 in supernatant of A375 cells) (huTWEAK): 0.136 nM
Kd [4]: 0.062 nM
koff [4]: 0.00082 s⁻¹
kon [4]: 1.3e+07 M⁻¹ s⁻¹
Kd [5]: < 0.0083 nM
koff [5]: < 1e-06 s⁻¹
kon [5]: 120000 M⁻¹ s⁻¹
B7: DVD1140 (bispecific antibody, human IgG1, kappa)
heavy: not shown
light: QIVLSQSPAILSASPGEKVTMTCRASSSVSYMHWFQQKPGSSPKPWIYATSNLASGVPARFSGSGSGTSYSLTISRVEAEDAATYYCQQWSSSPLTFGAGTKLELKRTVAAPDVVMTQSPLSLSVSLGDQASISCRSSQSLVSSKGNTYLHWYLQKPGQSPKFLIYKVSNRFSGVPDRFSGSGSGTDFTLKISRVAAEDLGVYFCSQSTHFPRTFGGGTTLEIKRTVAAPSVFIFPPSDEQLKSGTASVVCLLNNFYPREAKVQWKVDNALQSGNSQESVTEQDSKDSTYSLSSTLTLSKADYEKHKVYACEVTHQGLSSPVTKSFNRGEC
notes: also called DVD1140H/DVD1140L
N-terminal VD TNFα Neutralization Assay EC50 nM (L929 cell viability, WST-1) (muTNFα): 1.06 nM

C-terminal VD TWEAK Neutralization Assay EC50 nM (IL-8 in supernatant of A375 cells) (huTWEAK): 4.34 nM
B9: DVD1135 (bispecific antibody, human IgG1, kappa)
heavy: not shown
light: QIVLSQSPAILSASPGEKVTMTCRASSSVSYMHWFQQKPGSSPKPWIYATSNLASGVPARFSGSGSGTSYSLTISRVEAEDAATYYCQQWSSSPLTFGAGTKLELKRTVAAPDVVMTQSPLSLSVSLGDQASISCRSSQSLVSSKGNTYLHWYLQKPGQSPKFLIYKVSNRFSGVPDRFSGSGSGTDFTLKISRVAAEDLGVYFCSQSTHFPRTFGGGTTLEIKRTVAAPSVFIFPPSDEQLKSGTASVVCLLNNFYPREAKVQWKVDNALQSGNSQESVTEQDSKDSTYSLSSTLTLSKADYEKHKVYACEVTHQGLSSPVTKSFNRGEC
N-terminal VD TNFα Neutralization Assay EC50 nM (L929 cell viability, WST-1) (muTNFα): 1.95 nM

Continued, binder first:

B1: AB211 (antibody, human IgG1, kappa, V domains shown)
VH: EVQLVESGGGLVQPGGSLRLSCAASGFTFSRYAMSWVRQAPGKGLEWVAEISSGGSYPYYPDTVTGRFTISRDNAKNSLYLQMNSLRAEDTAVYYCARVLYYDYDGDRIEVMDYWGQGTLVTVSS
VL: DVVMTQSPLSLPVTPGEPASISCRSSQSLVSSKGNTYLHWYLQKPGQSPQFLIYKVSNRFSGVPDRFSGSGSGTDFTLKISRVEAEDVGVYFCSQSTHFPRTFGGGTKVEIKR
TWEAK Neutralization Assay EC50 nM (IL-8 in supernatant of A375 cells) (huTWEAK): 0.396 nM
Kd [1]: < 0.00025 nM
koff [1]: 2.5e-06 s⁻¹
kon [1]: > 1e+07 M⁻¹ s⁻¹

B2: AB212 (antibody, human IgG1, kappa, V domains shown)
VH: EVQLVESGGGLVRPGGSLKLFCAASGFTFSRYAMSWVRQSPEKRLEWVAEISSGGSYPYYPDTVTGRFTISRDNAKNTLYLEMSSLKSEDTAMYYCARVLYYDYDGDRIEVMDYWGQGTAVIVSS
VL: DVVMTQSPLSLSVSLGDQASISCRSSQSLVSSKGNTYLHWYLQKPGQSPKFLIYKVSNRFSGVPDRFSGSGSGTDFTLKISRVAAEDLGVYFCSQSTHFPRTFGGGTTLEIKR
Kd [1]: 0.0018 nM
koff [1]: 2.6e-05 s⁻¹
kon [1]: 1.1e+07 M⁻¹ s⁻¹

B4: DVD1128 (bispecific antibody, human IgG1, kappa)
heavy: not shown
light: DVVMTQSPLSLPVTPGEPASISCRSSQSLVSSKGNTYLHWYLQKPGQSPQFLIYKVSNRFSGVPDRFSGSGSGTDFTLKISRVEAEDVGVYFCSQSTHFPRTFGGGTKVEIKRTVAAPQIVLSQSPAILSASPGEKVTMTCRASSSVSYMHWFQQKPGSSPKPWIYATSNLASGVPARFSGSGSGTSYSLTISRVEAEDAATYYCQQWSSSPLTFGAGTKLELKRTVAAPSVFIFPPSDEQLKSGTASVVCLLNNFYPREAKVQWKVDNALQSGNSQESVTEQDSKDSTYSLSSTLTLSKADYEKHKVYACEVTHQGLSSPVTKSFNRGEC
N-terminal VD TWEAK Neutralization Assay EC50 nM (IL-8 in supernatant of A375 cells) (huTWEAK): 0.462 nM

B5: AB210 (antibody, human IgG1, kappa, V domains shown)
VH: EFQLQQSGPELVKPGASVRISCKASGYSFTDYNMNWVKQSNGKSLEWVGVINPNYGSSTYNQKFKGKATLTVDQSSSTAYMQLNSLTSEDSAVYYCARKWGQLGRGFFDVWGTGTTVTVSS
VL: QIVLSQSPAILSASPGEKVTMTCRASSSVSYMHWFQQKPGSSPKPWIYATSNLASGVPARFSGSGSGTSYSLTISRVEAEDAATYYCQQWSSSPLTFGAGTKLELKR
notes: also called TNF parent antibody; muTNFα Parent Antibody
TNFα Neutralization Assay EC50 nM (L929 cell viability, WST-1) (muTNFα): 0.717 nM
Kd [2]: 0.073 nM
koff [2]: 0.00041 s⁻¹
kon [2]: 5.6e+06 M⁻¹ s⁻¹
Kd [3]: 0.073 nM
koff [3]: 0.00041 s⁻¹

B8: DVD1127 (bispecific antibody, human IgG1, kappa)
heavy: not shown
light: QIVLSQSPAILSASPGEKVTMTCRASSSVSYMHWFQQKPGSSPKPWIYATSNLASGVPARFSGSGSGTSYSLTISRVEAEDAATYYCQQWSSSPLTFGAGTKLELKRTVAAPDVVMTQSPLSLPVTPGEPASISCRSSQSLVSSKGNTYLHWYLQKPGQSPQFLIYKVSNRFSGVPDRFSGSGSGTDFTLKISRVEAEDVGVYFCSQSTHFPRTFGGGTKVEIKRTVAAPSVFIFPPSDEQLKSGTASVVCLLNNFYPREAKVQWKVDNALQSGNSQESVTEQDSKDSTYSLSSTLTLSKADYEKHKVYACEVTHQGLSSPVTKSFNRGEC
notes: also called DVD1127H/DVD1127L
N-terminal VD TNFα Neutralization Assay EC50 nM (L929 cell viability, WST-1) (muTNFα): 0.703 nM
Kd [4]: 0.059 nM
koff [4]: 0.00058 s⁻¹
kon [4]: 9.9e+06 M⁻¹ s⁻¹
